# Assay results: patent US20200048332A1 (BIOVERATIV USA, published 2020)
# T1: activated C1s (human, UniProt P09871 16-688)
# T1 construct: also called active C1s; aC1s
# T1 sequence: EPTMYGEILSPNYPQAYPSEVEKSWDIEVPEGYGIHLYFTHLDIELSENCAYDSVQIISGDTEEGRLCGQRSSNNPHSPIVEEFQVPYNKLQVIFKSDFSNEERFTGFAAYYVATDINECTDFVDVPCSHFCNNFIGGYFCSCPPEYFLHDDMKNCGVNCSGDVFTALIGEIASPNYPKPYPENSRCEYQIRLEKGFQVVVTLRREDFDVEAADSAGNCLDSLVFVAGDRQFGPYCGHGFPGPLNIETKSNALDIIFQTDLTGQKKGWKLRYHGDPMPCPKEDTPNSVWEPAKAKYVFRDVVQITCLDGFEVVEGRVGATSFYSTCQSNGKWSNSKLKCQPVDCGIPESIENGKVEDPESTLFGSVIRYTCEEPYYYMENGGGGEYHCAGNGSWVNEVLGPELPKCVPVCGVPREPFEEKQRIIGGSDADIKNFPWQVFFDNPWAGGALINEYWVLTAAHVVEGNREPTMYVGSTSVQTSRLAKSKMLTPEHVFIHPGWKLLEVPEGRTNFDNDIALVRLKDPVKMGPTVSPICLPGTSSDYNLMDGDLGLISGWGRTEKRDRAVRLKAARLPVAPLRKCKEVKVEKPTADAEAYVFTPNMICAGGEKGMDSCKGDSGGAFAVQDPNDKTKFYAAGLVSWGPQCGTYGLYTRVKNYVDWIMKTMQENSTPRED
# Target: T1, activated C1s
# Assay: method not stated; dissociation constant for active C1s
row,Binder,Kd [nM]
1,"VH3/VK2-Fc-sub4 (antibody, human IgG4 S228P, kappa, V domains shown, Humanized IgG4; also called TNT020; humanized anti-aC1s variant VH3/VK2-Fc-sub4) VH: QVQLVQSGAEVKKPGASVKLSCTASGFNIKDDYIHWVKQAPGQGLEWIGRIDPADGHTKYAPKFQVKVTITADTSTSTAYLELSSLRSEDTAVYYCARYGYGREVFDYWGQGTTVTVSS VL: DIVLTQSPDSLAVSLGERATISCKASQSVDYDGDSYMNWYQQKPGQPPKILIYDASNLESGIPARFSGSGSGTDFTLTISSLEPEDFAIYYCQQSNEDPWTFGGGTKVEIKR",1.53

# Target: T1, activated C1s
# Assay: cell-based or functional assay
row,Binder,"IC50 of classical complement pathway inhibition ('Classical Pathway Inhibition', IC50 (M)) [M]"
1,"murine anti-activated C1s antibody (antibody, V domains shown) VH: EVQLQQSGAELVRPGASVKLSCTASGFNIKDDYIHWVKQRPEQGLEWIGRIDPADGHTKYAPKFQVKATITADTSSNTAYLQLSSLTSEDTAVYYCARYGYGREVFDYWGQGTTLTVSS VL: DIVLTQSPASLAVSLGQRATISCKASQSVDYDGDSYMNWYQQKTGQPPKILIYDASNLESGIPARFSGSGSGTDFTLNIHPVEEEDAAIYYCQQSNEDPWTFGGGTKLEIK",1.06e-09
2,"humanized VH3/Vk2 (antibody, V domains shown) VH: QVQLVQSGAEVKKPGASVKLSCTASGFNIKDDYIHWVKQAPGQGLEWIGRIDPADGHTKYAPKFQVKVTITADTSTSTAYLELSSLRSEDTAVYYCARYGYGREVFDYWGQGTTVTVSS VL: DIVLTQSPDSLAVSLGERATISCKASQSVDYDGDSYMNWYQQKPGQPPKILIYDASNLESGIPARFSGSGSGTDFTLTISSLEPEDFAIYYCQQSNEDPWTFGGGTKVEIK",1.26e-09
3,"humanized VH1/Vk5 (antibody, V domains shown) VH: EVQLVQSGAELKKPGASVKLSCTASGFNIKDDYIHWVKQAPGQGLEWIGRIDPADGHTKYAPKFQVKATITADTSTNTAYLQLSSLTSEDTAVYYCARYGYGREVFDYWGQGTTVTVSS VL: DIVLTQSPDSLAVSLGERATISCKASQSVDYDGDSYMNWYQQKPGQPPKLLIYDASNLESGIPARFSGSGSGTDFTLTISSLEPEDFAVYYCQQSNEDPWTFGGGTKVEIK",1.26e-09
4,"humanized VH4/Vk5 (antibody, V domains shown) VH: QVQLVQSGAEVKKPGASVKVSCTASGFNIKDDYIHWVRQAPGQGLEWIGRIDPADGHTKYAPKFQVKVTITADTSTSTAYMELSSLRSEDTAVYYCARYGYGREVFDYWGQGTTVTVSS VL: DIVLTQSPDSLAVSLGERATISCKASQSVDYDGDSYMNWYQQKPGQPPKLLIYDASNLESGIPARFSGSGSGTDFTLTISSLEPEDFAVYYCQQSNEDPWTFGGGTKVEIK",1.54e-09
5,"humanized VH1/Vk2 (antibody, V domains shown) VH: EVQLVQSGAELKKPGASVKLSCTASGFNIKDDYIHWVKQAPGQGLEWIGRIDPADGHTKYAPKFQVKATITADTSTNTAYLQLSSLTSEDTAVYYCARYGYGREVFDYWGQGTTVTVSS VL: DIVLTQSPDSLAVSLGERATISCKASQSVDYDGDSYMNWYQQKPGQPPKILIYDASNLESGIPARFSGSGSGTDFTLTISSLEPEDFAIYYCQQSNEDPWTFGGGTKVEIK",1.14e-09
6,"humanized VH5/Vk1 (antibody, V domains shown) VH: QVQLVQSGAEVKKPGASVKVSCAASGFNIKDDYIHWVRQAPGQGLEWIGRIDPADGHTKYAPKFQVKVTITADTSTSTAYMELSSLRSEDTAVYYCARYGYGREVFDYWGQGTTVTVSS VL: DIVLTQSPDSLAVSLGERATISCKASQSVDYDGDSYMNWYQQKTGQPPKILIYDASNLESGIPARFSGSGSGTDFTLTISSLEEEDFAIYYCQQSNEDPWTFGGGTKVEIK",1.08e-09
7,"humanized VH3/Vk5 (antibody, V domains shown) VH: QVQLVQSGAEVKKPGASVKLSCTASGFNIKDDYIHWVKQAPGQGLEWIGRIDPADGHTKYAPKFQVKVTITADTSTSTAYLELSSLRSEDTAVYYCARYGYGREVFDYWGQGTTVTVSS VL: DIVLTQSPDSLAVSLGERATISCKASQSVDYDGDSYMNWYQQKPGQPPKLLIYDASNLESGIPARFSGSGSGTDFTLTISSLEPEDFAVYYCQQSNEDPWTFGGGTKVEIK",1.38e-09
8,"humanized VH2/Vk1 (antibody, V domains shown) VH: EVQLVQSGAEVKKPGASVKLSCTASGFNIKDDYIHWVKQAPGQGLEWIGRIDPADGHTKYAPKFQVKATITADTSTNTAYLELSSLRSEDTAVYYCARYGYGREVFDYWGQGTTVTVSS VL: DIVLTQSPDSLAVSLGERATISCKASQSVDYDGDSYMNWYQQKTGQPPKILIYDASNLESGIPARFSGSGSGTDFTLTISSLEEEDFAIYYCQQSNEDPWTFGGGTKVEIK",1.23e-09
9,"humanized VH1/Vk1 (antibody, V domains shown) VH: EVQLVQSGAELKKPGASVKLSCTASGFNIKDDYIHWVKQAPGQGLEWIGRIDPADGHTKYAPKFQVKATITADTSTNTAYLQLSSLTSEDTAVYYCARYGYGREVFDYWGQGTTVTVSS VL: DIVLTQSPDSLAVSLGERATISCKASQSVDYDGDSYMNWYQQKTGQPPKILIYDASNLESGIPARFSGSGSGTDFTLTISSLEEEDFAIYYCQQSNEDPWTFGGGTKVEIK",1.2e-09
10,"humanized VH4/Vk1 (antibody, V domains shown) VH: QVQLVQSGAEVKKPGASVKVSCTASGFNIKDDYIHWVRQAPGQGLEWIGRIDPADGHTKYAPKFQVKVTITADTSTSTAYMELSSLRSEDTAVYYCARYGYGREVFDYWGQGTTVTVSS VL: DIVLTQSPDSLAVSLGERATISCKASQSVDYDGDSYMNWYQQKTGQPPKILIYDASNLESGIPARFSGSGSGTDFTLTISSLEEEDFAIYYCQQSNEDPWTFGGGTKVEIK",1.35e-09
11,"humanized VH4/Vk2 (antibody, V domains shown) VH: QVQLVQSGAEVKKPGASVKVSCTASGFNIKDDYIHWVRQAPGQGLEWIGRIDPADGHTKYAPKFQVKVTITADTSTSTAYMELSSLRSEDTAVYYCARYGYGREVFDYWGQGTTVTVSS VL: DIVLTQSPDSLAVSLGERATISCKASQSVDYDGDSYMNWYQQKPGQPPKILIYDASNLESGIPARFSGSGSGTDFTLTISSLEPEDFAIYYCQQSNEDPWTFGGGTKVEIK",1.31e-09
12,"humanized VH3/Vk1 (antibody, V domains shown) VH: QVQLVQSGAEVKKPGASVKLSCTASGFNIKDDYIHWVKQAPGQGLEWIGRIDPADGHTKYAPKFQVKVTITADTSTSTAYLELSSLRSEDTAVYYCARYGYGREVFDYWGQGTTVTVSS VL: DIVLTQSPDSLAVSLGERATISCKASQSVDYDGDSYMNWYQQKTGQPPKILIYDASNLESGIPARFSGSGSGTDFTLTISSLEEEDFAIYYCQQSNEDPWTFGGGTKVEIK",1.27e-09
13,"humanized VH5/Vk2 (antibody, V domains shown) VH: QVQLVQSGAEVKKPGASVKVSCAASGFNIKDDYIHWVRQAPGQGLEWIGRIDPADGHTKYAPKFQVKVTITADTSTSTAYMELSSLRSEDTAVYYCARYGYGREVFDYWGQGTTVTVSS VL: DIVLTQSPDSLAVSLGERATISCKASQSVDYDGDSYMNWYQQKPGQPPKILIYDASNLESGIPARFSGSGSGTDFTLTISSLEPEDFAIYYCQQSNEDPWTFGGGTKVEIK",1.33e-09
14,"humanized VH2/Vk5 (antibody, V domains shown) VH: EVQLVQSGAEVKKPGASVKLSCTASGFNIKDDYIHWVKQAPGQGLEWIGRIDPADGHTKYAPKFQVKATITADTSTNTAYLELSSLRSEDTAVYYCARYGYGREVFDYWGQGTTVTVSS VL: DIVLTQSPDSLAVSLGERATISCKASQSVDYDGDSYMNWYQQKPGQPPKLLIYDASNLESGIPARFSGSGSGTDFTLTISSLEPEDFAVYYCQQSNEDPWTFGGGTKVEIK",1.27e-09
15,"humanized VH5/Vk5 (antibody, V domains shown) VH: QVQLVQSGAEVKKPGASVKVSCAASGFNIKDDYIHWVRQAPGQGLEWIGRIDPADGHTKYAPKFQVKVTITADTSTSTAYMELSSLRSEDTAVYYCARYGYGREVFDYWGQGTTVTVSS VL: DIVLTQSPDSLAVSLGERATISCKASQSVDYDGDSYMNWYQQKPGQPPKLLIYDASNLESGIPARFSGSGSGTDFTLTISSLEPEDFAVYYCQQSNEDPWTFGGGTKVEIK",1.33e-09
